Measured values: patent US9708383 (Novo Nordisk, dated 2017)
*1 amine or outer side, *2 acyl side, *3 side chain or, on linkers, in order; H or OH if unused. Where no end group is shown, it is not given here. Side-chain parts run from the residue outwards. [ ]: non-standard residue; d: D form. The star is where a group is joined. 8‑(4-carboxyphenoxy)octanoyl = O=C(O)c1ccc(OCCCCCCCC(=O)*)cc1; Decanoyl(10-(4-HOOC-PhO)) = O=C(O)c1ccc(OCCCCCCCCCC(=O)*)cc1; γGlu = O=C(O)[C@H](CCC(=O)[*:2])N[*:1]; C12 diacid = O=C(O)CCCCCCCCCCC(=O)*; 13‑carboxytridecanoyl = C14 diacid; AEEA = NCCOCCOCC(=O)O; Aib = CC(C)(N)C(=O)O

Tests used:
human GLP-1 receptor [1] = target: T1, human GLP-1 receptor (human, UniProt P43220 24-463); assay: SPA, displacement of 125I-GLP-1(7-36)NH2, 0.005% HSA
T1 construct: whole, on cells; Used as purified membranes of the transfected hamster cells, not whole cells; also called hGLP-1
Protocol: (§1) A shift in the binding affinity, $IC50$, is an indication that the derivative in question binds to albumin, and thereby a prediction of a potential protracted pharmacokinetic profile of the derivative in question in animal models.
(§2) 25 ul (microliter) of test compounds are added to Optiplate. HSA ("high albumin" experiment containing 2% HSA), or buffer ("low albumin" experiment containing 0.005% HSA), was added (50 ul). 5-10 µg protein/sample was added (50 ul) corresponding to 0.1-0.2 mg protein/ml (to be preferably optimised for each membrane preparation). SPA-particles (Wheatgerm agglutinin SPA beads, Perkin Elmer, #RPNQ0001) were added in an amount of 0.5 mg/well (50 ul). […] The plates were sealed with PlateSealer and incubated for 120 minutes at 30° C. while shaking. The plates were centrifuged (1500 rpm, 10 min) and counted in Topcounter.

human GLP-1 receptor [2] = target: T1, human GLP-1 receptor; assay: SPA, 2.0% vs 0.005% HSA
Protocol: as §1, §2

| Binder | IC50 (human GLP-1 receptor [1]) [µM] | ratio IC50 high HSA/IC50 low HSA (human GLP-1 receptor [2]) |
| --- | --- | --- |
| HAEGTFTSDVSK([AEEA-AEEA-γGlu-13‑carboxytridecanoyl])YLEEQAAREFIAK([AEEA-AEEA-γGlu-13‑carboxytridecanoyl])LVRGRG [GLP-1 derivative of Example 78: [Lys18,Glu22,Arg26,Lys31,Arg34]-GLP-1-(7-37)-peptide] | < 1 | > 1 |
| HAEGTFTSDVSK([AEEA-AEEA-γGlu-13‑carboxytridecanoyl])YLEGQAVREFIAK([AEEA-AEEA-γGlu-13‑carboxytridecanoyl])LVRGRG [GLP-1 derivative of Example 77: [Lys18,Val25,Arg26,Lys31,Arg34]-GLP-1-(7-37)-peptide] | < 1 | > 1 |
| HAEGTFTSDVSK([AEEA-AEEA-γGlu-Decanoyl(10-(4-HOOC-PhO))])YLEEQAVREFIAK([AEEA-AEEA-γGlu-Decanoyl(10-(4-HOOC-PhO))])LVRGRG [GLP-1 derivative of Example 75: [Lys18,Glu22,Val25,Arg26,Lys31,Arg34]-GLP-1-(7-37)-peptide] | < 1 | > 1 |
| HAEGTFTSDVSK([AEEA-AEEA-γGlu-Decanoyl(10-(4-HOOC-PhO))])YLEGQAAHK([AEEA-AEEA-γGlu-Decanoyl(10-(4-HOOC-PhO))])FIAWLVQGRG [GLP-1 derivative of Example 67: [Lys18,His26,Lys27,Gln34]-GLP-1-(7-37)-peptide] | < 1 | > 1 |
| HAEGTFTSDVSK([AEEA-AEEA-γGlu-Decanoyl(10-(4-HOOC-PhO))])YLEEQAAK([AEEA-AEEA-γGlu-Decanoyl(10-(4-HOOC-PhO))])EFIAWLVQGRG [GLP-1 derivative of Example 38: [Lys18,Glu22,Gln34]-GLP-1-(7-37)-peptide] | < 1 | > 1 |
| HAEGTFTSDVSK([AEEA-AEEA-γGlu-13‑carboxytridecanoyl])YLEGQAAREFIAK([AEEA-AEEA-γGlu-13‑carboxytridecanoyl])LVRGRG [GLP-1 derivative of Example 70: [Lys18,Arg26,Lys31,Arg34]-GLP-1-(7-37)-peptide] | < 1 | > 1 |
| HAEGTFTSDVSK([AEEA-AEEA-γGlu-Decanoyl(10-(4-HOOC-PhO))])YLEEQAAK([AEEA-AEEA-γGlu-Decanoyl(10-(4-HOOC-PhO))])EFIAWLVRGRG [GLP-1 derivative of Example 94: [Lys18,Glu22,Arg34]-GLP-1-(7-37)-peptide] | < 1 | > 1 |
| HAEGTFTSDVSK([AEEA-AEEA-γGlu-13‑carboxytridecanoyl])YLEEQAVREFIAK([AEEA-AEEA-γGlu-13‑carboxytridecanoyl])LVQGRG [GLP-1 derivative of Example 44: [Lys18,Glu22,Val25,Arg26,Lys31,Gln34]-GLP-1-(7-37)-peptide] | < 1 | > 1 |
| HAEGTFTSDVSK([γGlu-AEEA-AEEA-13‑carboxytridecanoyl])YLEEQAVREFIAK([γGlu-AEEA-AEEA-13‑carboxytridecanoyl])LVQGRG [GLP-1 derivative of Example 56: [Lys18,Glu22,Val25,Arg26,Lys31,Gln34]-GLP-1-(7-37)-peptide] | < 1 | > 1 |
| HAEGTFTSDVSK([AEEA-AEEA-γGlu-13‑carboxytridecanoyl])YLEEQAAK([AEEA-AEEA-γGlu-13‑carboxytridecanoyl])EFIAWLVQGRG [GLP-1 derivative of Example 54: [Lys18,Glu22,Gln34]-GLP-1-(7-37)-peptide] | < 1 | > 1 |
| HAEGTFTSDVSK([γGlu-AEEA-AEEA-13‑carboxytridecanoyl])YLEEQAVREFIAK([γGlu-AEEA-AEEA-13‑carboxytridecanoyl])LVRGRG [GLP-1 derivative of Example 55: [Lys18,Glu22,Val25,Arg26,Lys31,Arg34]-GLP-1-(7-37)-peptide] | < 1 | > 1 |
| HAEGTFTSDVSK([AEEA-AEEA-γGlu-Decanoyl(10-(4-HOOC-PhO))])YLEGQAAK([AEEA-AEEA-γGlu-Decanoyl(10-(4-HOOC-PhO))])EFIAWLVRGRG [GLP-1 derivative of Example 95: [Lys18,Arg34]-GLP-1-(7-37)-peptide] | < 1 | > 1 |
| HAEGTFTSDVSK([AEEA-AEEA-γGlu-13‑carboxytridecanoyl])YLEEQAAHK([AEEA-AEEA-γGlu-13‑carboxytridecanoyl])FIAHLVRGRG [GLP-1 derivative of Example 62: [Lys18,Glu22,His26,Lys27,His31,Arg34]-GLP-1-(7-37)-peptide] | < 1 | > 1 |
| HAEGTFTSDVSK([AEEA-AEEA-γGlu-C12 diacid])YLEEQAAK([AEEA-AEEA-γGlu-C12 diacid])EFIAWLVQGRG [GLP-1 derivative of Example 40: [Lys18,Glu22,Gln34]-GLP-1-(7-37)-peptide] | < 1 | > 1 |
| HAEGTFTSDVSK([AEEA-AEEA-γGlu-13‑carboxytridecanoyl])YLEEQAAHK([AEEA-AEEA-γGlu-13‑carboxytridecanoyl])FIAWLVRGRG [GLP-1 derivative of Example 60: [Lys18,Glu22,His26,Lys27,Arg34]-GLP-1-(7-37)-peptide] | < 1 | > 1 |
| HAEGTFTSDVSK([AEEA-AEEA-γGlu-13‑carboxytridecanoyl])YLEEEAVRK([AEEA-AEEA-γGlu-13‑carboxytridecanoyl])FIAWLVRGRG [GLP-1 derivative of Example 57: [Lys18,Glu22,Glu23,Val25,Arg26,Lys27,Arg34]-GLP-1-(7-37)-peptide] | < 1 | > 1 |
| HAEGTFTSDVSK([AEEA-AEEA-γGlu-13‑carboxytridecanoyl])YLEEQAVRK([AEEA-AEEA-γGlu-13‑carboxytridecanoyl])FIAWLVRGRG [GLP-1 derivative of Example 46: [Lys18,Glu22,Val25,Arg26,Lys27,Arg34]-GLP-1-(7-37)-peptide] | < 1 | > 1 |
| HAEGTFTSDVSK([AEEA-AEEA-γGlu-Decanoyl(10-(4-HOOC-PhO))])YLEGQAAK([AEEA-AEEA-γGlu-Decanoyl(10-(4-HOOC-PhO))])EFIAWLVQGRG [GLP-1 derivative of Example 34: [Lys18,Gln34]-GLP-1-(7-37)-peptide] | < 1 | > 1 |
| HAEGTFTSDVSK([AEEA-AEEA-γGlu-13‑carboxytridecanoyl])YLEGQAAHEFIAK([AEEA-AEEA-γGlu-13‑carboxytridecanoyl])LVRGRG (position 26 of the entry may not be His) [GLP-1 derivative of Example 72: [Lys18,His26,Lys31,Arg34]-GLP-1-(7-37)-peptide] | < 1 | > 1 |
| HAEGTFTSDVSK([AEEA-AEEA-γGlu-13‑carboxytridecanoyl])YLEEQAVRKFIAHLVRGRG (Printed name omits the second acylation; printed masses fit a double-acylated compound) [GLP-1 derivative of Example 47: [Lys18,Glu22,Val25,Arg26,Lys27,His31,Arg34]-GLP-1-(7-37)-peptide] | < 1 | > 1 |
| HAEGTFTSDVSK([AEEA-AEEA-γGlu-13‑carboxytridecanoyl])YLEEQAVREFIAK([AEEA-AEEA-γGlu-13‑carboxytridecanoyl])LVRGRG [GLP-1 derivative of Example 43: [Lys18,Glu22,Val25,Arg26,Lys31,Arg34]-GLP-1-(7-37)-peptide] | < 1 | > 1 |
| HAEGTFTSDVSK([AEEA-AEEA-γGlu-Decanoyl(10-(4-HOOC-PhO))])YLEEQAAHK([AEEA-AEEA-γGlu-Decanoyl(10-(4-HOOC-PhO))])FIAWLVQGRG [GLP-1 derivative of Example 35: [Lys18,Glu22,His26,Lys27,Gln34]-GLP-1-(7-37)-peptide] | < 1 | > 1 |
| HAEGTFTSDVSK([AEEA-AEEA-γGlu-13‑carboxytridecanoyl])YLEEEAVRK([AEEA-AEEA-γGlu-13‑carboxytridecanoyl])FIAWLVQGRG [GLP-1 derivative of Example 58: [Lys18,Glu22,Glu23,Val25,Arg26,Lys27,Gln34]-GLP-1-(7-37)-peptide] | < 1 | > 1 |
| HAEGTFTSDVSK([AEEA-AEEA-γGlu-13‑carboxytridecanoyl])YLEEQAAHK([AEEA-AEEA-γGlu-13‑carboxytridecanoyl])FIAWLVQGRG [GLP-1 derivative of Example 61: [Lys18,Glu22,His26,Lys27,Gln34]-GLP-1-(7-37)-peptide] | < 1 | > 1 |
| HAEGTFTSDVSK([AEEA-AEEA-γGlu-Decanoyl(10-(4-HOOC-PhO))])YLEEQAVRK([AEEA-AEEA-γGlu-Decanoyl(10-(4-HOOC-PhO))])FIAWLVQGRG [GLP-1 derivative of Example 42: [Lys18,Glu22,Val25,Arg26,Lys27,Gln34]-GLP-1-(7-37)-peptide] | < 1 | > 1 |
| HAEGTFTSDVSK([AEEA-AEEA-γGlu-8‑(4-carboxyphenoxy)octanoyl])YLEEQAAK([AEEA-AEEA-γGlu-8‑(4-carboxyphenoxy)octanoyl])EFIAWLVQGRG [GLP-1 derivative of Example 89: [Lys18,Glu22,Gln34]-GLP-1-(7-37)-peptide] | < 1 | > 1 |
| HAEGTFTSDVSK([AEEA-AEEA-γGlu-γGlu-γGlu-13‑carboxytridecanoyl])YLEGQAAREFIAK([AEEA-AEEA-γGlu-γGlu-γGlu-13‑carboxytridecanoyl])LVRGRG [GLP-1 derivative of Example 91: [Lys18,Arg26,Lys31,Arg34]-GLP-1-(7-37)-peptide] | < 1 | > 1 |
| HAEGTFTSDVSK([AEEA-AEEA-γGlu-13‑carboxytridecanoyl])YLEEQAVRK([AEEA-AEEA-γGlu-13‑carboxytridecanoyl])FIAWLVQGRG [GLP-1 derivative of Example 48: [Lys18,Glu22,Val25,Arg26,Lys27,Gln34]-GLP-1-(7-37)-peptide] | < 1 | > 1 |
| H[Aib]EGTFTSDVSK([AEEA-AEEA-γGlu-13‑carboxytridecanoyl])YLEEQAARK([AEEA-AEEA-γGlu-13‑carboxytridecanoyl])FIAHLVRG (ends and bridges not checked) [GLP-1 derivative of Example 9: [Aib8,Lys18,Glu22,Arg26,Lys27,His31,Arg34]-GLP-1-(7-35)-peptide] | < 1 | > 1 |
